Test results from patent US20250076311A1 (Chugai, published 2025).
Changes are numbered by the printed parent chain. Names and notes keep the numbering of the source.

Experiments:
[1] = target: T1, soluble mouse FcγRII, His-tagged (mouse, UniProt P08101 30-210, limits assumed); assay: SPR, mouse FcγRII captured via His-tag, antigen-antibody complex injected, pH 7.4, 25 C
T1 construct: Captured on the chip through an anti-His antibody
T1 sequence (looked up): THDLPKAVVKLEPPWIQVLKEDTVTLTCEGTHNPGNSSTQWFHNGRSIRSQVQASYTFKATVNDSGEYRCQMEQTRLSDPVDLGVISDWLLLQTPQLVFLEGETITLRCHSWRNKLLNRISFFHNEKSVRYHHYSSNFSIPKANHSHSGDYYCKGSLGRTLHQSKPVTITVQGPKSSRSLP
Outline: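 Biacore T200; His-tagged soluble FcγRII captured on an anti-His antibody chip, then antibody–antigen complexes injected. Running buffer 20 mM ACES, 150 mM NaCl, 1.2 mM CaCl₂, 0.05% Tween 20, pH 7.4; regeneration with 10 mM glycine-HCl pH 1.5; all at 25° C.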

[2] = target: T2, human FcγRIIb constitutively expressed on MDCK cells (human, UniProt P31994 43-310); assay: cell-based or functional assay
T2 sequence (looked up): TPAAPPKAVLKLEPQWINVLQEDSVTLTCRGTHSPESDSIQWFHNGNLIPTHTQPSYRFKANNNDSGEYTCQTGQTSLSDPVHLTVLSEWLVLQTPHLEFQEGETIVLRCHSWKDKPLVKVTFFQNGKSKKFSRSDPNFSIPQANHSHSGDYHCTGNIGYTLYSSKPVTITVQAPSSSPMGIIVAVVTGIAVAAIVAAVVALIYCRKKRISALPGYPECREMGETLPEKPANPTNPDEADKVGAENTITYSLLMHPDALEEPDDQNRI

[3] = target: T3, cynomolgus monkey FcγRIIIaS extracellular domain with C-terminal His-tag (cynomolgus monkey, UniProt Q8SPW2 21-206 at identity 1.00)); assay: SPR, antibody captured, FcγR analyte
T3 construct: also called cyno FcgRIIIaS; cynoFcγRIIIaS
T3 chain: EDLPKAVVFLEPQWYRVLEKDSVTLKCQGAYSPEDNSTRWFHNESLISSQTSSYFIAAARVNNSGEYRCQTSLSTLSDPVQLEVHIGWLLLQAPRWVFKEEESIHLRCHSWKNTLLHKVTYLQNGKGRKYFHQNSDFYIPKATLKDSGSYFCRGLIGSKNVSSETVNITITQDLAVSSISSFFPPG

[4] = target: T4, human FcγRIIaR extracellular domain with C-terminal His-tag (human, UniProt P12318 34-217); assay: SPR, antibody captured, FcγR analyte
T4 construct: also called human FcgRIIaR; FcγRIIa (type R)
T4 chain: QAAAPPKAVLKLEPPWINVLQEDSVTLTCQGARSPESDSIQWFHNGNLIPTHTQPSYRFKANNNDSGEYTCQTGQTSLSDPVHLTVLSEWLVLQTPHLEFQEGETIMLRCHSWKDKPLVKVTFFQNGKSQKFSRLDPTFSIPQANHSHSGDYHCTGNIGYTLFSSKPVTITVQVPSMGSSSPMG

[5] = target: T5, cynomolgus monkey FcγRIIIaS extracellular domain with C-terminal His-tag (cynomolgus monkey, UniProt Q8SPW2 21-206 at identity 1.00)); assay: SPR (Biacore), KD of SG1 divided by KD of variant
T5 construct: also called cyno FcgRIIIaS; cynoFcγRIIIaS
T5 chain: T3 chain

[6] = target: T6, human FcγRIIaR extracellular domain with C-terminal His-tag (human, UniProt P12318 34-217); assay: SPR (Biacore), KD of SG1 divided by KD of variant
T6 construct: also called human FcgRIIaR; FcγRIIa (type R)
T6 chain: T4 chain

[7] = target: T7, cynomolgus monkey FcγRIIb extracellular domain with C-terminal His-tag (cynomolgus monkey); assay: SPR (Biacore), KD of SG1 divided by KD of variant
T7 construct: also called cyno FcgRIIb; cynoFcγRIIb
T7 chain: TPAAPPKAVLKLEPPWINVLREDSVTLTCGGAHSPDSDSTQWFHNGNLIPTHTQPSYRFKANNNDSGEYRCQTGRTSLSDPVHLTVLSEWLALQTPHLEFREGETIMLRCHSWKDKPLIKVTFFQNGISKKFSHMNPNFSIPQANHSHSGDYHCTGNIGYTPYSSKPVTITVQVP

[8] = target: T8, human FcγRIIIaV extracellular domain with C-terminal His-tag (human, UniProt P08637 17-208); assay: SPR (Biacore), KD of SG1 divided by KD of variant
T8 construct: also called human FcgRIIIaV
T8 sequence (P08637 17-208 F176V): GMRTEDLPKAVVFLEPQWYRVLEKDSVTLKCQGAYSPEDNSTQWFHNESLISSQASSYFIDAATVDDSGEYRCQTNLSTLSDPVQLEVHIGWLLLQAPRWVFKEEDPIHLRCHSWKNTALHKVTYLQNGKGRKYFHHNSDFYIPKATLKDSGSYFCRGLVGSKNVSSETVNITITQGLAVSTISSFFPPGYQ

[9] = target: T6, human FcγRIIaR extracellular domain …; assay: SPR (Biacore), antibody captured, FcgR as analyte
[10] = target: T9, human FcγRIIaH extracellular domain with C-terminal His-tag (human, UniProt P12318 34-217); assay: SPR (Biacore), antibody captured, FcgR as analyte
T9 construct: also called human FcgRIIaH; FcγRIIa (type H)
T9 sequence: T4 chain with R134H

[11] = target: T3, cynomolgus monkey FcγRIIIaS …; assay: SPR, KD(SG1)/KD(variant)
[12] = target: T4, human FcγRIIaR extracellular domain …; assay: SPR, KD(SG1)/KD(variant)
[13] = target: T10, human FcγRIIIaV extracellular domain with C-terminal His-tag (human, UniProt P08637 17-208); assay: SPR, KD(SG1)/KD(variant)
T10 construct: also called human FcgRIIIaV
T10 sequence (P08637 17-208 F176V): as above

[14] = target: T11, cynomolgus monkey FcγRIIb extracellular domain with C-terminal His-tag (cynomolgus monkey); assay: SPR, KD(SG1)/KD(variant)
T11 construct: also called cyno FcgRIIb; cynoFcγRIIb
T11 chain: T7 chain

[15] = target: T12, human FcγRIIb extracellular domain with C-terminal His-tag (human, UniProt P31994 43-217); assay: SPR, KD(SG1)/KD(variant)
T12 construct: also called human FcgRIIb
T12 sequence: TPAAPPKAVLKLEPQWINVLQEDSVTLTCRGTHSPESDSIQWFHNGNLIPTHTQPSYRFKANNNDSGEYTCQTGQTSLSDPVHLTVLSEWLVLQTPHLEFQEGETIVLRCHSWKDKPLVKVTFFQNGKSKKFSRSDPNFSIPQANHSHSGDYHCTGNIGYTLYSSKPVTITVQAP

[16] = target: T13, cynomolgus monkey FcγRIIa3 extracellular domain with C-terminal His-tag (cynomolgus monkey); assay: SPR (Biacore), KD of SG1 divided by KD of variant
T13 construct: also called cyno FcgRIIa3; cynoFcγRIIa3
T13 chain: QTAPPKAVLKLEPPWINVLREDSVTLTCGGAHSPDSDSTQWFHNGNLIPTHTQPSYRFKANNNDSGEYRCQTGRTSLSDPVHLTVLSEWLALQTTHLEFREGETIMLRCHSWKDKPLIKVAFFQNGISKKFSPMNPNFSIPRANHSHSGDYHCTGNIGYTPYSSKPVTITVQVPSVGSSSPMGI

[17] = target: T14, human FcγRIIb extracellular domain with C-terminal His-tag (human, UniProt P31994 43-217); assay: SPR (Biacore), KD of SG1 divided by KD of variant
T14 construct: also called human FcgRIIb
T14 sequence: T12 sequence

[18] = target: T15, cynomolgus monkey FcγRIIa1 extracellular domain with C-terminal His-tag (cynomolgus monkey); assay: SPR (Biacore), KD of SG1 divided by KD of variant
T15 construct: also called cyno FcgRIIa1; cynoFcγRIIa1
T15 chain: T13 chain with T95P, A121T, S128A, P133H, N135D

[19] = target: T15, cynomolgus monkey FcγRIIa1 …; assay: SPR (Biacore), antibody captured, FcgR as analyte

B1: MS1032LO06-SG1 (antibody, human IgG1, kappa)
heavy: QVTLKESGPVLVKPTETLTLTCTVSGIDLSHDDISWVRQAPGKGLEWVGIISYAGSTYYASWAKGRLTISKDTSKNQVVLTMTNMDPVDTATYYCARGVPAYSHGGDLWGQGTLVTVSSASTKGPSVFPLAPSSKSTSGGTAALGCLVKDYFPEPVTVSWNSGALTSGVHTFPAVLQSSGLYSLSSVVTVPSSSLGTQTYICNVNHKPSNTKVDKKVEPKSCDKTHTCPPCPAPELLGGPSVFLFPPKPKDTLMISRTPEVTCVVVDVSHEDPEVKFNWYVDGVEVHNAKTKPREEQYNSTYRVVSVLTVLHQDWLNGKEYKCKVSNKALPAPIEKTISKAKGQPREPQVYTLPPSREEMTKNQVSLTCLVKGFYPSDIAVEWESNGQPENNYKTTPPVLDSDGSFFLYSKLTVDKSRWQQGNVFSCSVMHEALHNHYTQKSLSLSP
light: DIVMTQSPATLSLSPGERATLSCTSSQSVYHANWLSWFQQKPGQPPKLLIYWASTLAYGVPSRFSGSGSGTDFTLTISSLQPEDAATYYCAGGYGGGRYAFGQGTKVEIKRTVAAPSVFIFPPSDEQLKSGTASVVCLLNNFYPREAKVQWKVDNALQSGNSQESVTEQDSKDSTYSLSSTLTLSKADYEKHKVYACEVTHQGLSSPVTKSFNRGEC
notes: also called M103205H795-SG1; copies: 2 + 2
With B1 the “biacore IC binding (relative, SG1 = 1.00)” value [1] was 1 relative to SG1, the “celluar uptake (labelled human latent myostatin taken up as antigen-antibody complex)” value [2] was 1 relative to SG1 = 1.00 and the Kd [3] was 260 nM. The Kd [4] was 10000 nM.

B2: M103205H795-MY514 / M103202L889-SK1 (antibody)
heavy: QVTLKESGPVLVKPTETLTLTCTVSGIDLSHDDISWVRQAPGKGLEWVGIISYAGSTYYASWAKGRLTISKDTSKNQVVLTMTNMDPVDTATYYCARGVPAYSHGGDLWGQGTLVTVSSASTKGPSVFPLAPSSKSTSGGTAALGCLVKDYFPEPVTVSWNSGALTSGVHTFPAVLQSSGLYSLSSVVTVPSSSLGTQTYICNVNHKPSNTKVDKKVEPKSCDKTHTCPPCPAPELLTGPVVFLFPPKPKDTLMISRTPEVTCVVVDVSDEDPEVKFNWYVDGVEVHNAKTKPREEQYNLTYRVVSVLTVLHQDWLNGKEYKCKVSNKALPKPIEKTISKAKGQPREPQVYTLPPSREEMTKNQVSLTCLVKGFYPSDIAVEWESNGQPENNYKTTPPVLDSDGSFFLYSKLTVDKSRWQQGNVFSCSVMHEALHNHYTQKSLSLSP
light: B1 light
notes: 'S258L' copied as printed, probably S298L
With B2 the “KD fold (SG1 = 1)” value [5] was 0.05 fold, the “KD fold (SG1 = 1)” value [6] was 6.9 fold and the “KD fold (SG1 = 1)” value [7] was 2.6 fold. The “KD fold (SG1 = 1)” value [8] was 0.09 fold.

B3: M103205H795-MY528 / M103202L889-SK1 (antibody, human IgG1, kappa, name in EU numbering)
heavy: B2 heavy with L236W, V241S, L300S
light: B1 light
With B3 the “KD fold (SG1 = 1)” value [5] was 0.18 fold, the Kd [9] was 560 nM and the Kd [10] was 350 nM.

B4: M103205H795-MY534/M103202L889-SK1 (antibody, human IgG1, kappa, name in EU numbering)
heavy: B2 heavy with Q297L, L300S
light: B1 light
notes: copies: 2 + 2
With B4 the “KD fold (SG1 = 1)” value [11] was 0.22 fold, the “KD fold (SG1 = 1)” value [12] was 5.8 fold and the “KD fold (SG1 = 1)” value [13] was 0.15 fold.

B5: M103205H795-MY532/M103202L889-SK1 (antibody, human IgG1, kappa, name in EU numbering)
heavy: B2 heavy with L236W, L300S
light: B1 light
notes: copies: 2 + 2
In the case of B5, the “KD fold (SG1 = 1)” value [12] is reported as 5.8 fold and the “KD fold (SG1 = 1)” value [13] is reported as 0.48 fold.

B6: M103205H795-MY533/M103202L889-SK1 (antibody, human IgG1, kappa, name in EU numbering)
heavy: B2 heavy with L236W, Q297L, L300S
light: B1 light
notes: copies: 2 + 2
In the case of B6, the “KD fold (SG1 = 1)” value [14] is reported as 7.7 fold, the “KD fold (SG1 = 1)” value [11] is reported as 0.33 fold and the “KD fold (SG1 = 1)” value [15] is reported as 4.8 fold.

B7: M103205H795-MY531/M103202L889-SK1 (antibody, human IgG1, kappa, name in EU numbering)
heavy: B2 heavy with L236W, V241S, L300S, K328T
light: B1 light
notes: copies: 2 + 2
In the case of B7, the “KD fold (SG1 = 1)” value [13] is reported as 0.28 fold and the “KD fold (SG1 = 1)” value [15] is reported as 3.1 fold.

B8: M103205H795-MY520 / M103202L889-SK1 (antibody, human IgG1, kappa, name in EU numbering)
heavy: B2 heavy with P234D, Q297L, L300S
light: B1 light
B8 was tested, and the “KD fold (SG1 = 1)” value [16] was 8.1 fold, the “KD fold (SG1 = 1)” value [6] was 3.2 fold and the “KD fold (SG1 = 1)” value [8] was 0.23 fold. For the same binder, the “KD fold (SG1 = 1)” value [17] was 3.3 fold.

B9: M103205H795-MY537/M103202L889-SK1 (antibody, human IgG1, kappa, name in EU numbering)
heavy: B2 heavy with A233G, L236W, Q297L, L300S
light: B1 light
notes: copies: 2 + 2
For B9, the “KD fold (SG1 = 1)” value [14] was 5.6 fold and the “KD fold (SG1 = 1)” value [11] was 0.24 fold.

B10: M103205H795-MY530 / M103202L889-SK1 (antibody, human IgG1, kappa, name in EU numbering)
heavy: B2 heavy with V241S, L300S, K328T
light: B1 light
In the case of B10, the “KD fold (SG1 = 1)” value [18] is reported as 2.5 fold, the “KD fold (SG1 = 1)” value [17] is reported as 2.9 fold and the Kd [19] is reported as 1300 nM.
